Experimental findings from US20070248617A1 (published 2007) are described below.

In this test the target is T1, recombinant human RANK-hFc fusion protein (human, UniProt Q9Y6Q6 30-212, limits assumed).
T1 construct: also called hRANK; not shown: human Fc (hFc)
T1 sequence (looked up): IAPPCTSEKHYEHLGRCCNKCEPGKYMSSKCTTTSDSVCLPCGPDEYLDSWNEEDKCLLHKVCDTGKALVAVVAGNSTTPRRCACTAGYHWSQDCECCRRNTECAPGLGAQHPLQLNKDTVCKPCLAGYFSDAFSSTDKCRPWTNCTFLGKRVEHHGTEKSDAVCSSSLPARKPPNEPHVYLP
The experiment in a line: ELISA, human RANKL coated at 10 µg/ml, serial dilutions of human RANK-hFc, anti-hFc-HRP detection. The protocol: To test whether the antibodies generated in mice have neutralizing activity, in vitro binding assays for both mouse and human RANKL and their cognate receptors mouse RANK and human RANK were established. ELISA plates were therefore coated with 10 μg/ml of either mouse or human RANKL protein and incubated with serial dilutions of a recombinant mouse RANK-hFc fusion protein or a recombinant human RANK-hFc fusion protein, respectively. Bound protein was detected with a horse raddish peroxidase conjugated anti-hFc antibody. […] Sera of mice immunized with mRANKL(155-174) coupled to Qβcapsid were then tested for their ability to inhibit the binding of mouse and human RANKL protein to their respective receptors. ELISA plates were therefore coated with either mouse or human RANKL protein at a concentration of 10 μg/ml, and co-incubated with serial dilutions of a pool of mouse sera from day 35 and 0.35 nM mouse or human RANK-hFc fusion protein, respectively. Binding of receptor to immobilized RANKL protein was detected with horse raddish peroxidase conjugated anti-hFc antibody.

B1: human RANKL protein (ligand, UniProt O14788 140-317, looked up)
chain: IRAEKAMVDGSWLDLAKRSKLEAQPFAHLTINATDIPSGSHKVSLSSWYHDRGWAKISNMTFSNGKLIVNQDGFYYLYANICFRHHETSGDLATEYLQLMVYVTKTSIKIPSSHTLMKGGSTKYWSGNSEFHFYSINVGGFFKLRSGEEISIEVSNPSLLDPDQDATYFGAFKVRDID
notes: also called hRANKL
Take B1: the binding result is reported as “binds”.
